Results taken from patent US20170002055A1, “Novel peptides and combination of peptides for use in immunotherapy against ovarian cancer and other cancers” (immatics biotechnologies GmbH, priority 2015, published 2017).

Target: HLA-A*02:01 (Homo sapiens, UniProt P04439, D140Y/D185E/D98H/E176V/E277Q/G131W/G231S/I119V/I121R/I166T/I218V/L300P/L318F/N151K/N90K/P208A/P217A/Q86G/Q94H/R138H/R169H/T345S)
Assay: MHC binding assay (UV-ligand exchange, β2m ELISA, peptide exchange yield)
Conditions: MHC class I binding score; binding to HLA-A*02:01 ranged by peptide exchange yield (UV-ligand exchange, β2m ELISA)
Summary of the method: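 Binding is expressed as peptide exchange yield: stabilized MHC complexes were quantified by β2m ELISA, with a 450 nm TMB read-out on streptavidin-coated plates. Complexes came from UV-ligand exchange, where UV irradiation cleaves a photolabile peptide so the candidate peptide can load.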

Peptide exchange	Substance
“+++” (≧50 = +++)	622 (RLLGEEVVRVLQA; listed as Homo sapiens) [compound 622]
“++” (≧20% = ++)	431 (SLVNVVPKL; listed as Homo sapiens) [compound 431]
“++” (≧20% = ++)	398 (KLLEEDGTIITL; listed as Homo sapiens) [compound 398]
“+++” (≧50 = +++)	471 (YLYNNMIAKI; listed as Homo sapiens) [compound 471]
“+++” (≧50 = +++)	591 (SMAELDIKL; listed as Homo sapiens) [compound 591]
“+++” (≧50 = +++)	542 (RVWDISTVSSV; listed as Homo sapiens) [compound 542]
“+++” (≧50 = +++)	578 (FLDPGGPMMKL; listed as Homo sapiens) [compound 578]
“+++” (≧50 = +++)	598 (FLFPHSVLV; listed as Homo sapiens) [compound 598]
“+++” (≧50 = +++)	487 (LLINSVFHV; listed as Homo sapiens) [compound 487]
“+++” (≧50 = +++)	560 (ALWDIETGQQTTT; listed as Homo sapiens) [compound 560]
“+++” (≧50 = +++)	490 (FLLQHVQEL; listed as Homo sapiens) [compound 490]
“++” (≧20% = ++)	393 (GLLDTQTSQVLTA; listed as Homo sapiens) [compound 393]
“+++” (≧50 = +++)	472 (KLLEVSDDPQV; listed as Homo sapiens) [compound 472]
“+++” (≧50 = +++)	556 (FLTDLEDLTL; listed as Homo sapiens) [compound 556]
“+++” (≧50 = +++)	606 (ALWETEVYI; listed as Homo sapiens) [compound 606]
“+++” (≧50 = +++)	497 (GLLEKLTAI; listed as Homo sapiens) [compound 497]

Peptide exchange	Substance
“+++” (≧50 = +++)	539 (ALFDAQAQV; listed as Homo sapiens) [compound 539]
“++” (≧20% = ++)	590 (SLIEKLWQT; listed as Homo sapiens) [compound 590]
“++” (≧20% = ++)	440 (ALADGVTMQV; listed as Homo sapiens) [compound 440]
“+++” (≧50 = +++)	517 (LLMPIPEGLTL; listed as Homo sapiens) [compound 517]
“+++” (≧50 = +++)	608 (SLLSVSHAL; listed as Homo sapiens) [compound 608]
“++” (≧20% = ++)	429 (GLVNDLARV; listed as Homo sapiens) [compound 429]
“+++” (≧50 = +++)	441 (ALLENPKMEL; listed as Homo sapiens) [compound 441]
“+++” (≧50 = +++)	481 (GLIEDYEALL; listed as Homo sapiens) [compound 481]
“+++” (≧50 = +++)	476 (ALMERTGYSMV; listed as Homo sapiens) [compound 476]
“+++” (≧50 = +++)	452 (ILLEHGADPNL; listed as Homo sapiens) [compound 452]
“+++” (≧50 = +++)	575 (YLISQVEGHQV; listed as Homo sapiens) [compound 575]
“+++” (≧50 = +++)	537 (TLAPGEVLRSV; listed as Homo sapiens) [compound 537]
“+++” (≧50 = +++)	529 (LLADELITV; listed as Homo sapiens) [compound 529]
“+++” (≧50 = +++)	588 (SLLPLSHLV; listed as Homo sapiens) [compound 588]
“+++” (≧50 = +++)	550 (FLYDEIEAEVNL; listed as Homo sapiens) [compound 550]
“+++” (≧50 = +++)	514 (ILVDWLVQV; listed as Homo sapiens) [compound 514]

The next lines start with the substance.

Substance	Peptide exchange
361 (ALYELEGTTV; listed as Homo sapiens) [compound 361]	“+++” (≧50 = +++)
308 (SQYSGQLHEV; listed as Homo sapiens) [compound 308]	“+++” (≧50 = +++)
85 (KMSELRVTL; listed as Homo sapiens) [compound 85]	“+++” (≧50 = +++)
218 (SALEELVNV; listed as Homo sapiens) [compound 218]	“++” (≧20% = ++)
369 (GLFPEHLIDV; listed as Homo sapiens) [compound 369]	“+++” (≧50 = +++)
359 (YLLPESVDL; listed as Homo sapiens) [compound 359]	“+++” (≧50 = +++)
75 (GLLEVMVNL; listed as Homo sapiens) [compound 75]	“+++” (≧50 = +++)
12 (SLWPDPMEV; listed as Homo sapiens) [compound 12]	“+++” (≧50 = +++)
370 (SLLQDLVSV; listed as Homo sapiens) [compound 370]	“+++” (≧50 = +++)
306 (ALVNVQIPL; listed as Homo sapiens) [compound 306]	“+++” (≧50 = +++)
274 (SLLFSLFEA; listed as Homo sapiens) [compound 274]	“++” (≧20% = ++)
168 (KILDADIQL; listed as Homo sapiens) [compound 168]	“++++” (≧75% = ++++)
66 (FLDENIGGVAV; listed as Homo sapiens) [compound 66]	“+++” (≧50 = +++)
22 (IMEENPGIFAV; listed as Homo sapiens) [compound 22]	“+++” (≧50 = +++)
146 (SLATAGDGLIEL; listed as Homo sapiens) [compound 146]	“++” (≧20% = ++)
208 (KISPVTFSV; listed as Homo sapiens) [compound 208]	“+++” (≧50 = +++)
214 (FLLDLDPLLL; listed as Homo sapiens) [compound 214]	“+++” (≧50 = +++)
201 (RLVDYLEGI; listed as Homo sapiens) [compound 201]	“+++” (≧50 = +++)
353 (YLFEMDSSL; listed as Homo sapiens) [compound 353]	“++” (≧20% = ++)
254 (TLLAFIMEL; listed as Homo sapiens) [compound 254]	“+++” (≧50 = +++)
137 (TLVLTLPTV; listed as Homo sapiens) [compound 137]	“++++” (≧75% = ++++)
386 (ILFRYPLTI; listed as Homo sapiens) [compound 386]	“+++” (≧50 = +++)
220 (LLQKFVPEI; listed as Homo sapiens) [compound 220]	“++” (≧20% = ++)

Substance	Peptide exchange
69 (FQLDPSSGVLVTV; listed as Homo sapiens) [compound 69]	“+++” (≧50 = +++)
169 (NLPEYLPFV; listed as Homo sapiens) [compound 169]	“+++” (≧50 = +++)
355 (SIQQSIERLLV; listed as Homo sapiens) [compound 355]	“++” (≧20% = ++)
102 (YLFESEGLVL; listed as Homo sapiens) [compound 102]	“+++” (≧50 = +++)
309 (GLFDGVPTTA; listed as Homo sapiens) [compound 309]	“+++” (≧50 = +++)
70 (GLLDYPVGV; listed as Homo sapiens) [compound 70]	“+++” (≧50 = +++)
340 (ALLSMTFPL; listed as Homo sapiens) [compound 340]	“++++” (≧75% = ++++)
144 (YIMEPSIFNTL; listed as Homo sapiens) [compound 144]	“+++” (≧50 = +++)
241 (SLVEVNPAYSV; listed as Homo sapiens) [compound 241]	“+++” (≧50 = +++)
90 (TLLQIIETV; listed as Homo sapiens) [compound 90]	“+++” (≧50 = +++)
39 (SVAPNLPAV; listed as Homo sapiens) [compound 39]	“+++” (≧50 = +++)
128 (YLFDDPLSAV; listed as Homo sapiens) [compound 128]	“++” (≧20% = ++)
195 (GLFADLLPRL; listed as Homo sapiens) [compound 195]	“+++” (≧50 = +++)
315 (YLQDVVEQA; listed as Homo sapiens) [compound 315]	“+++” (≧50 = +++)
104 (STMEQNFLL; listed as Homo sapiens) [compound 104]	“++++” (≧75% = ++++)
234 (ALMEDTGRQML; listed as Homo sapiens) [compound 234]	“++” (≧20% = ++)
391 (YVYPQRLNFV; listed as Homo sapiens) [compound 391]	“+++” (≧50 = +++)
332 (YLISELEAA; listed as Homo sapiens) [compound 332]	“+++” (≧50 = +++)
344 (YLQDQHLLLTV; listed as Homo sapiens) [compound 344]	“+++” (≧50 = +++)
110 (FLSQVDFEL; listed as Homo sapiens) [compound 110]	“+++” (≧50 = +++)
334 (TLTKVLVAL; listed as Homo sapiens) [compound 334]	“+++” (≧50 = +++)
10 (FLATFPLAAV; listed as Homo sapiens) [compound 10]	“++++” (≧75% = ++++)
101 (ILVGGGALATV; listed as Homo sapiens) [compound 101]	“+++” (≧50 = +++)
